Measurements as given in the nanobody polyreactivity screen of Harvey et al. (2022).

Assay: yeast display, Sf9 membrane polyspecificity reagent, FACS + sequencing; frameworks hold sequencing errors
How it was run: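 Genes from sorted yeast were amplified by colony PCR, read by MiSeq 2 × 250 sequencing and filtered on CDR length. These cells carried a synthetic nanobody library in Saccharomyces cerevisiae BJ5465 and were sorted by FACS into low and high (top ~1%) gates on anti-HA and streptavidin fluorescence. Polyreactivity is labelled according to the gate of origin.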

Sequence	polyreactivity (PSR sort gate)
QVHLVESGGGLVQAGGSLRLSCAASGLTFLYNTMGWYRQAPGKEREFVAAITISGGTTYYADSVKGRFTISRDNAKNTVYLQMNSLKREDTAVYYCAADYNSTERGTNMDYWGQGTQVTVSS	low polyreactivity
QVHLVESGGGLVQAGGSLRLSCAASGNIFGLYAMGWYRQAPGKERELVAAIRWIGGRTYYADSVKGRFTISRDNAKNTVYLQMNSLKPEDTAVYYCNAEYIVYYRGYDYWGHGTQVTVSS	high polyreactivity
QVHLVESGGGLVQAGGSLRLSCAASGNTFYKYTMGWYRQAPGKERELVAVISSSSGSTYYADSVKGRFTISRDNAMNTVYLQMNSLKPEDTAVDYCNKRGWWDLRHDYWGQGTQVTVSS	low polyreactivity
QVHLVESGGGLVQAGGSLRLSCAASGRIFGDNAMGWYRQAPGKERELVAAITVNAGSTHYADSVKGRFTISRDNAKNTDYLQMNSLKPEDTAVYYCAKQTAPVTGVGPYYYWGQGTQVTVSS	low polyreactivity
QVHLVESGGGLVQAGGSLRLSCAASGRIFGYNAMGWYRQAPGKERELVAAITGSRGSTYYADSVKGRFTFSRDTAKNTVYLQLNSLKPEDTAVYYCNAPGNHWGDWGHGTQVTVSS	low polyreactivity
QVHLVESGGGLVQAGGSLRLSCAASGRIFGYYAMGWYRQAPGKVRELVAAIRRSGGSTYADSVKGRFTISRDNAKNTVYLQMNSLKPEDTAVYDCAAGHYWTSPYRVLSYSYWGQGTQVTVSS	high polyreactivity
QVHLVESGGGLVQAGGSLRLSCAASGRIFSLNAMGCDRQAPGKERELVAAISTGGASTYYADSVKGRFTISRDNAKNTVYLQMNSLKPEDTAVYSCAADLGYEYDYWGQGTQVTVSS	high polyreactivity
QVHLVESGGGLVQAGGSLRLSCAASGRIFSRNAMGWYRQAPGKERELVASITRGGSTYYADSVKGRFTISRDNAKITVYLQMNSLKPEDTAVYYCAAVFYDRGQRYNYWGQGTQVTVSS	high polyreactivity
QVHLVESGGGLVQAGGSLRLSCAASGRIFTYYAMGWYRQAPGKERELFAGISRSGTSSYYADSVKGSFTISRDNAKNTVYLQMNSLKPEDTAVYYCAADVFRDDVWLDYWGQGTQVTVSS	low polyreactivity
QVHLVESGGGLVQAGGSLRLSCAASGRIFYANARGWYRQAPGKERELVAAISQSGGSTFYADSVKGRFTISRDYAKNTVYLQMNSLKPEDTAVYYCATDYYGPVYDLDYDYWGQGTQVTVSS	low polyreactivity
QVHLVESGGGLVQAGGSLRLSCAASGRIFYANDMGWYRQAPGKERELVAAITNTVSTTYADSVKGRFTISRDNAKNTVYLQMNSLKTEDTAVYYCNADDPYVPKADMGYWGQGTQVTVSS	low polyreactivity
QVHLVESGGGLVQAGGSLRLSCAASGRIFYAYAMGWYRPAPVKERELVAAITWSGGSTYYADSVKGRFTISRDNAKNTVYLQMNSLKPEDTAVYYCAADLRVKYVHTYSYVWYRYDYWGQGTQVTVSS	high polyreactivity
QVHLVESGGGLVQAGGSLRLSCAASGRIIGKYAMGWYRQPPGKERELVAAITWSGGNTYYADSVKGRFTISRDNAKNTVYLQMNSLKPEDTAVYYCAASVPGKSHKDGYWGQGSQVTVSS	high polyreactivity
QVHLVESGGGLVQAGGSLRLSCAASGRIINYYDMGWYRQAPGKERELVAAISRSGGRTYYADSVKGRFTISRDNAKNTVYLQMNSLKPEDNAVYYCAASDYQRYQPTPQYTYYYWGQGTQVTVSS	high polyreactivity
QVHLVESGGGLVQAGGSLRLSCAASGRILGDYAMGWYRQAPGKEREFVAAIDYNGGSTNYADSVKGRFTISRDNAKNTVYLQMNSLKPEDTAVYYCAAPGFPSRNGFGYWGQGTQVTVSS	low polyreactivity
QVHLVESGGGLVQAGGSLRLSCAASGRILSLYAMGWYRQAPGKERELVASINWSDGSTYYADSVKGRFTISRDNAKNTVYLQMNSLKPEDTAVYYCNVDVSSYVAGYDYWGQGTQVTVSS	low polyreactivity
QVHLVESGGGLVQAGGSLRLSCAASGRNFGYYARGWYRQAPVKERELVAAIDSSGGDTYYADSVKGRFTISRDNAKNSVYVQMNSLKPEDTAVFYCAAEYVAQAGYGVDYWGQGTEVTVSS	low polyreactivity
QVHLVESGGGLVQAGGSLRLSCAASGRTFDLNAMGWYRQAPGKERELVAGISSSGGRTYYADSVKGRFTISRDNAKNTVYLQMNSLIPEDTAVYYCAKVYPSYVLRKYDYWGQGTQVTVSS	high polyreactivity
QVHLVESGGGLVQAGGSLRLSCAASGRTFFQYAMGWYTQAPGKERELVAAIRWSDSTYYADSVKGRFTISRDNAKNTVYLQMNSLKPEDTAVYYCAKTYRYYRTMDYWGQGTQVTVSS	low polyreactivity
QVHLVESGGGLVQAGGSLRLSCAASGRTFGWNVMGWYRPAPGKERELVAAISGSGGSTYYADSVKGRFTISRDNAKNPVYLQMNSLKPEDTAVYYCAALYGPGREYDYWGQVTQVTVSS	low polyreactivity
QVHLVESGGGLVQAGGSLRLSCAASGRTFIFYAMRWYRQAPGKERELVATISRSAGSTYYADSVKGRFTISRDNAKNTVYLQMNSLKPEDTAVYYCATQSRHYRGGKYYYWGQGTQVSVSS	high polyreactivity
QVHLVESGGGLVQAGGSLRLSCAASGRTFIGNAMGWYRQATGKERELVAGITWSGGRSYYADSVKGRFTISRDNAKNTVYLQMNSQKPEDTAVYYCGRAGQSSRMNYWGQGTQVTVSS	high polyreactivity

Sequence	polyreactivity (PSR sort gate)
QVHLVESGGGLVQAGGSLRLSCAASGRTFSAYAMGWYRQAPGKEREDVAAISRSGGSTYYADSVKGRFPISRDNAKNTVYLQMNILTPEDTAVSDCAVRWPSARIPVKLEDWGQGTQVTVSS	high polyreactivity
QVHLVESGGGLVQAGGSLRLSCAASGRTFVQYAMGWSRQAPGTERELVAVISNGGTTYYADSVKGRFTISRDNAKNTVYLQMNSLKPEDTAVYYCAAKIITRRGGRYDYWGQGTQVTVSS	high polyreactivity
QVHLVESGGGLVQAGGSLRLSCAASGRTFWNYAMGWYRQAPGKEREFVAVIRFSDGSTYYADSVKGRFTISRDNAKNTVYLQMNSLKPDDTAVYYCAAKGPRRWGSGFDYWGQGNQVTVSS	low polyreactivity
QVHLVESGGGLVQAGGSLRLSCAASGRTFYANAMGWYIQAPGKERELVAAISTGGDGTYYADSVKGRFTISRDNAKNTVYLQMNSLKPEDTAVYYCAVRHRASGILYDYWGQGTQVTVSS	low polyreactivity
QVHLVESGGGLVQAGGSLRLSCAASGRTFYDYAMGWYRQAPGKERELVAAITYSGGSTFYADSVKGRFTISRDNAKNTFYLQMNSLKPEDTAVYYCAAEVLRLVGAAEYDYWGQGTQVTVSS	low polyreactivity
QVHLVESGGGLVQAGGSLRLSCAASGRTFYRNAMGWYRQAPGKERELVAAIRTRTGSTYYADSVKGRFTISRDNAKNTVYLQMNSLKPEDTAGYYCAALAWYPYYASWPVESDYWGQGTQVTVSS	high polyreactivity
QVHLVESGGGLVQAGGSLRLSCAASGRTIDRNTMGWYRQAPVKERELVATITWSVGRTYYADSVKGRFTISRDNGKITVYVQMISMKPEDTGVYFCAAGIYAYKYESWGHGTQVTVSS	high polyreactivity
QVHLVESGGGLVQAGGSLRLSCAASGRTIHSYAMGWYRQAPGKERELVAAINNGGGTYYADSVKGRFTISRDNAKNTVYLQMNSRKPEDTAVYYCAAATRKRIGSYYYWGQGTQVTVSS	high polyreactivity
QVHLVESGGGLVQAGGSLRLSCAASGRTSIFNAMGWYRPAPGKERELVAAITARGASTYYADSVKGRFTISRDNAKNTVYLQKNSLKPDDTAVYYCAARDHAFRYYRNPFKGKYDYWGQGTQVTVSS	low polyreactivity
QVHLVESGGGLVQAGGSLRLSCAASGSIFAGNAMGLSRQAPGKERELVAGISRSGGSTNYADSVKGRFTISRDNAKNSVYLQMNSLKPEDTAVYYCNTDPYSSAWYNYDYWGLGTQVTVSS	low polyreactivity
QVHLVESGGGLVQAGGSLRLSCAASGSIFFVYAMGWYRQAPGKERELVAAISNDGSTNYADSVKGRFTISRDNAKNTVYLQMNSLKPEDTAVYYCAADPSLRQYAYFDYDYWGQGTQVTVSS	low polyreactivity
QVHLVESGGGLVQAGGSLRLSCAASGSIFGDNTMGWYRQAPGKERELVAAISQSSGTSTYYADSVKGRFTISRDNAKNTVYFQMNSLKPEDTAVYYCAKDPHGSDFGYWGQVTQVTVSS	low polyreactivity
QVHLVESGGGLVQAGGSLRLSCAASGSIFGSYAMGWYRQAPGKERELVAAITIADITYYADSVKGRFTISRDNAKNTVNLQMNSLKPEDTAVYYCNAYWGWRDSWYYYWGQGTQVTVSS	low polyreactivity
QVHLVESGGGLVQAGGSLRLSCAASGSIFIVYTMGWYRQAPGKERELVAAISSGGITDYADSVKGRFTISRDNAKNTVYLQMNSLKPEDTAVYYWGQGTQVTVSS	low polyreactivity
QVHLVESGGGLVQAGGSLRLSCAASGSIFRIYAMGWYRQAPGKERELVAAINAGGGRTYYADSVKGRFTISRDNAKNTVYLQMNSLKPEDNAVYFCAARHTEYRQESLYYWGQGTQVTVSS	low polyreactivity
QVHLVESGGGLVQAGGSLRLSCAASGSIFSVYTRGWYRQAPGKERELVAAISTGGGSTYYADSVKGRFTISRDNAKNTVYLQMNSLKPEDTAVYYCATDYGWAPSYWYDSCGQGTQVTVSS	low polyreactivity
QVHLVESGGGLVQAGGSLRLSCAASGSIFVLYAMGWYRQAPGKERELVAAISRGVGGTNYADSVKGRFTISRDNAKNTVYLQMNSLKPEDTAVYYCAADWLWAWHYYGAMDYWGQGTQVTVSS	high polyreactivity
QVHLVESGGGLVQAGGSLRLSCAASGSIFVSNAMGWYRQAPGKERELVAAIRGVDSTYYADSVKGRFTISRDNAKNTVYLQMNSLKPEDTAVYYCATPGPGYTRYYYWGQGTQVTVSS	high polyreactivity
QVHLVESGGGLVQAGGSLRLSCAASGSIFWYYGMGWYRQAPGKERELVASITSGGSTNYADSVKGRFSISRDNAKNTVYLQMNRLKPEDSAVYYCNTDDDSSSTGYYSWGQGTQVNVSS	low polyreactivity
QVHLVESGGGLVQAGGSLRLSCAASGSIFYPYAMGWYRQAPGKERELVAAISGRGGNTYYADSVKGRFTISRDNAKNTVYFQMNSLKPEDTAVYYCAADRYYWSLYGYDYWGQGTQVTVSS	high polyreactivity
QVHLVESGGGLVQAGGSLRLSCAASGSIIRYYAMGWYRQAPGKERELVAVITRGGSTYYADSVKGRFTISRDNAKSTVYLQMNSLKPEDTAVYYCAADYWPAGLDRGYWGQGTQVTVSS	low polyreactivity
